# Results taken from paper PMC9098913, “In vitro reconstitution of Escherichia coli divisome activation” (Nature Communications, 2022).
# Where two headings read alike, the source gives them in different places.
# Tests used:
# [1] = Membrane off-binding rate (koff) of FtsA from FRAP
# Description: We could also use the data from these bleaching experiments to quantify the membrane-binding kinetics and diffusion of membrane-bound proteins by analysing the change of the fluorescence profile during recovery.
# Equimolar concentrations of Cy3- and Cy5-labelled FtsA, supplemented with 20% unlabelled FtsA were used to study FRET and FRAP. Five pre-bleach frames were acquired, followed by acceptor photobleaching of a rectangular ROI with 40% 641 nm laser power and a dwell size of 1 µs/pixel, 75% overlapping lines. The recovery of the signal or the increase in donor intensity were measured with either two frames or one frame per second.
# Bleaching the acceptor dye leads to an increase in the donor intensity, which can be used to quantify the Foerster Resonance energy transfer (FRET)[48]. FRET efficiency was quantified with E%=Ipost/Ipost+Ipre⋅100 , where Ipost is the intensity of the […] and Ipre is the […]. […] To extract the contribution of both processes, we adjusted a routine recently published by Gerganova et al.[33]. In short, the code provides the contribution of both modes of recovery by analysing the shape of the fluorescence recovery profile. […] Contribution of diffusion leads to a change of the slope of the outer borders of the bleached region (S4h right). Thus, by measuring the change of the slope of the border recovery, diffusion and simple on/off binding can be distinguished. We developed “FRAPdiff”, a graphical user interface, which uses the original fit routine by David Rutkowski. It can be used directly on.tiff movies with annotated bleach regions as ImageJ ROIs. In addition, we added optional bleach correction, user selectable projection axis (x or y), and optional mirroring of the recovery profiles, if bleaching was not symmetric. The original fit routine for estimating the recovery and diffusion dynamics can be found at https://github.com/davidmrutkowski/1DReflectingDiffusion. FRAPdiff is available at 10.5281/zenodo.6400639[49] under the GPLv3 open-source license.
# [2] = tested on: FtsZ; conditions: His-tagged FtsA
# Method: Co-treadmilling of FtsA with FtsZ relies on the dynamic exchange of FtsA on the membrane. […] To investigate the respective contributions of membrane binding kinetics and FtsA self-interaction on the colocalization dynamics with FtsZ, we wanted to create variants of the two FtsA proteins that are permanently attached to the membrane. […] Accordingly, in these experiments the proteins only differ in their tendency to form oligomers.
# To study colocalization of His-tagged variants of FtsA, 0.5–1 µM of Cy5 labelled His-tagged FtsAs were added to the chamber, incubated for 20 min and washed 6x with reaction buffer. […] To control the density of membrane-bound FtsA, SUVs without and with Tris-NTA lipids were mixed to obtain the respective Tris-NTA concentrations. To perform FRET/FRAP experiments, equimolar concentrations of Cy3 and Cy5 labelled His-tagged FtsAs (total 0.5–1 µM) or His-SUMO-Cys were added to a chamber and treated as above. […] FRAP experiments were performed as described before.
# Time-lapse videos were first intensity-corrected and contrast-enhanced to avoid bleaching effects and simplify subsequent analysis. To remove contributions of X–Y drift, the videos were processed with the Linear Stack Alignment with SIFT plugin. Proper alignment was checked with the 3TP align plugin (J. A. Parker; Beth Israel Deaconess Medical Center, Boston). Subsequently, regions of interest (ROIs) in the center of the stacks were chosen for colocalization analysis. The Pearson’s correlation coefficient (PCC) was quantified with the Image CorrelationJ 1o plugin. To extract information about the relative ratio of FtsZ/FtsA molecules (slope of linear regression), we also used the Image CorrelationJ 1o plugin. As an output, the plugin provides a scatterplot of FtsZ vs FtsA intensities, to which we fitted a linear slope y=k⋅x+d , where k is the slope and d the offset. The slope was used as an estimate for the ratio of FtsA molecules below FtsZ filaments.
molecule,measurement,setting,value
"FtsA R286W (protein, Cy3 or Cy5 at the N-terminus in the labelled form (labelled CLEPTGG peptide conjugated to the 5xGly tag by sortagging); unlabelled protein also used; left off: TwinStrep-SUMO, N-terminal, cleaved | 5x) MIKATDRKLVVGLEIGTAKVAALVGEVLPDGMVNIIGVGSCPSRGMDKGGVNDLESVVKCVQRAIDQAELMADCQISSVYLALSGKHISCQNEIGMVPISEEEVTQEDVENVVHTAKSVRVRDEHRVLHVIPQEYAIDYQEGIKNPVGLSGVRMQAKVHLITCHNDMAKNIVKAVERCGLKVDQLIFAGLASSYSVLTEDERELGVCVVDIGGGTMDIAVYTGGALRHTKVIPYAGNVVTSDIAYAFGTPPSDAEAIKVRHGCALGSIVGKDESVEVPSVGGRPPWSLQRQTLAEVIEPRYTELLNLVNEEILQLQEKLRQQGVKHHLAAGIVLTGGAAQIEGLAACAQRVFHTQVRIGAPLNITGLTDYAQEPYYSTAVGLLHYGKESHLNGEAEVEKRVTASVGSWIKRLNSWLRKEF",Off binding rate,"[1]; 0.4µM FtsA alone, replicate Exp.7",2.26E-01
same,Off binding rate,"[1]; 0.4µM FtsA alone, replicate Exp.8",2.05E-01
same,Off binding rate,"[1]; 0.4µM FtsA alone, replicate Exp.9",2.55E-01
same,membrane exchange (off-rate),"[1]; 0.4 µM FtsA, p-value 6.73 × 10^−6",0.37 ± 0.24 s⁻¹
same,Off binding rate,"[1]; 0.4µM, + FtsN&Z, Mean, n=9",0.1008
same,Off binding rate,"[1]; 0.4µM, + FtsN&Z, replicate Exp.1",3.83E-02
same,Off binding rate,"[1]; 0.4µM, + FtsN&Z, replicate Exp.2",7.71E-02
same,Off binding rate,"[1]; 0.4µM, + FtsN&Z, replicate Exp.3",4.63E-02
same,Off binding rate,"[1]; 0.4µM, + FtsN&Z, replicate Exp.4",2.42E-01
same,Off binding rate,"[1]; 0.4µM, + FtsN&Z, replicate Exp.5",1.75E-01
same,Off binding rate,"[1]; 0.4µM, + FtsN&Z, replicate Exp.6",5.12E-02
same,Off binding rate,"[1]; 0.4µM, + FtsN&Z, replicate Exp.7",5.06E-02
same,Off binding rate,"[1]; 0.4µM, + FtsN&Z, replicate Exp.8",1.16E-01
same,Off binding rate,"[1]; 0.4µM, + FtsN&Z, replicate Exp.9",1.11E-01
same,Off binding rate,"[1]; 0.4µM, + FtsN, Mean, n=6",0.1799
same,Off binding rate,"[1]; 0.4µM, + FtsN, replicate Exp.1",1.51E-01
same,Off binding rate,"[1]; 0.4µM, + FtsN, replicate Exp.2",4.77E-02
same,Off binding rate,"[1]; 0.4µM, + FtsN, replicate Exp.3",2.92E-01
same,Off binding rate,"[1]; 0.4µM, + FtsN, replicate Exp.4",2.85E-01
same,Off binding rate,"[1]; 0.4µM, + FtsN, replicate Exp.5",1.01E-01
same,Off binding rate,"[1]; 0.4µM, + FtsN, replicate Exp.6",2.02E-01
same,Off binding rate,"[1]; 0.4µM, + FtsZ, Mean, n=8",0.1794
same,Off binding rate,"[1]; 0.4µM, + FtsZ, replicate Exp.1",1.34E-01
same,Off binding rate,"[1]; 0.4µM, + FtsZ, replicate Exp.2",2.29E-01
same,Off binding rate,"[1]; 0.4µM, + FtsZ, replicate Exp.3",1.49E-01
same,Off binding rate,"[1]; 0.4µM, + FtsZ, replicate Exp.4",2.39E-01
same,Off binding rate,"[1]; 0.4µM, + FtsZ, replicate Exp.5",1.49E-01
same,Off binding rate,"[1]; 0.4µM, + FtsZ, replicate Exp.6",1.15E-01
same,Off binding rate,"[1]; 0.4µM, + FtsZ, replicate Exp.7",3.30E-01
same,Off binding rate,"[1]; 0.4µM, + FtsZ, replicate Exp.8",8.97E-02
same,"Off binding rate, mean",[1]; 0.8 µM FtsA + FtsN&Z,0.0945 s
same,"Off binding rate, mean",[1]; 0.8 µM FtsA + FtsN,0.188 s
same,"Off binding rate, mean",[1]; 0.8 µM FtsA + FtsZ,0.161 s
same,Off binding rate,"[1]; 0.8µM FtsA alone, Mean, n=8",0.3865
same,"Off binding rate, mean",[1]; 0.8 µM FtsA alone,0.386 s
same,Off binding rate,"[1]; 0.8µM FtsA alone, replicate Exp.1",6.04E-01
same,Off binding rate,"[1]; 0.8µM FtsA alone, replicate Exp.2",6.73E-01
same,Off binding rate,"[1]; 0.8µM FtsA alone, replicate Exp.3",7.27E-01
same,Off binding rate,"[1]; 0.8µM FtsA alone, replicate Exp.4",1.48E-01
same,Off binding rate,"[1]; 0.8µM FtsA alone, replicate Exp.5",5.66E-01
same,Off binding rate,"[1]; 0.8µM FtsA alone, replicate Exp.6",9.49E-02
same,Off binding rate,"[1]; 0.8µM FtsA alone, replicate Exp.7",1.46E-01
same,Off binding rate,"[1]; 0.8µM FtsA alone, replicate Exp.8",1.33E-01
same,Off binding rate,"[1]; 0.8µM, + FtsN&Z, Mean, n=4",0.0945
same,Off binding rate,"[1]; 0.8µM, + FtsN&Z, replicate Exp.1",3.85E-02
same,Off binding rate,"[1]; 0.8µM, + FtsN&Z, replicate Exp.2",2.22E-01
same,Off binding rate,"[1]; 0.8µM, + FtsN&Z, replicate Exp.3",6.03E-02
same,Off binding rate,"[1]; 0.8µM, + FtsN&Z, replicate Exp.4",5.77E-02
same,Off binding rate,"[1]; 0.8µM, + FtsN, Mean, n=3",0.1881
same,Off binding rate,"[1]; 0.8µM, + FtsN, replicate Exp.1",7.35E-02
same,Off binding rate,"[1]; 0.8µM, + FtsN, replicate Exp.2",3.72E-01
same,Off binding rate,"[1]; 0.8µM, + FtsN, replicate Exp.3",1.19E-01
same,Off binding rate,"[1]; 0.8µM, + FtsZ, Mean, n=8",0.1609
same,Off binding rate,"[1]; 0.8µM, + FtsZ, replicate Exp.1",2.88E-01
same,Off binding rate,"[1]; 0.8µM, + FtsZ, replicate Exp.2",1.14E-01
same,Off binding rate,"[1]; 0.8µM, + FtsZ, replicate Exp.3",2.71E-01
same,Off binding rate,"[1]; 0.8µM, + FtsZ, replicate Exp.4",1.12E-01
same,Off binding rate,"[1]; 0.8µM, + FtsZ, replicate Exp.5",1.44E-01
same,Off binding rate,"[1]; 0.8µM, + FtsZ, replicate Exp.6",1.39E-01
same,Off binding rate,"[1]; 0.8µM, + FtsZ, replicate Exp.7",1.37E-01
same,Off binding rate,"[1]; 0.8µM, + FtsZ, replicate Exp.8",8.23E-02
same,Off binding rate,"[1]; Fig. S3i/S3j, 0.10 µM FtsA, summary value",0.326 s⁻¹
same,Off binding rate,"[1]; Fig. S3i/S3j, 0.20 µM FtsA, summary value",0.251 s⁻¹
same,Off binding rate,"[1]; Fig. S3i/S3j, 0.40 µM FtsA, summary value",0.374 s⁻¹
same,Off binding rate,"[1]; Fig. S3i/S3j, 0.80 µM FtsA, summary value",0.386 s⁻¹
same,membrane off-rate,[1]; in the presence of FtsZ,around 0.20 s^−1
same,PCC,"[2]; 0.60% Tris NTA, Exp. 2 (statistical analysis)",0.65
same,"PCC, Mean","[2]; 0.60% Tris NTA, n = 2 (WT), 3 (R286W), sd 0.07, 0.08, p-value 0.39",0.56
same,PCC,"[2]; 0.80% Tris NTA, Exp. 1 (statistical analysis)",0.79
same,PCC,"[2]; 0.80% Tris NTA, Exp. 2 (statistical analysis)",0.63
same,PCC,"[2]; 0.80% Tris NTA, Exp. 3 (statistical analysis)",0.69
same,"PCC, Mean","[2]; 0.80% Tris NTA, n = 3, 3, sd 0.0141 (WT), 0.0648 (R286W), p-value 0.61",0.70
same,PCC,"[2]; 1.00% Tris NTA, Exp. 1 (statistical analysis)",0.78
same,PCC,"[2]; 1.00% Tris NTA, Exp. 2 (statistical analysis)",0.71
same,PCC,"[2]; 1.00% Tris NTA, Exp. 3 (statistical analysis)",0.72
same,"PCC, Mean","[2]; 1.00% Tris NTA, n = 4 (WT), 3 (R286W), sd 0.08, 0.0316, p-value 6.25E-02",0.73
same,PCC,"[2]; 2.00% Tris NTA, Exp. 1 (statistical analysis)",0.63
same,PCC,"[2]; 2.00% Tris NTA, Exp. 2 (statistical analysis)",0.53
same,PCC,"[2]; 2.00% Tris NTA, Exp. 3 (statistical analysis)",0.55
same,"PCC, Mean","[2]; 2.00% Tris NTA, n = 3, 3, sd 0.0143 (WT), 0.04 (R286W), p-value 1.59E-04",0.57
same,PCC,"[2]; […] Tris NTA, Exp. 1 (statistical analysis)",0.60
same,PCC,"[2]; […] Tris NTA, Exp. 2 (statistical analysis)",0.62
same,PCC,"[2]; […] Tris NTA, Exp. 3 (statistical analysis)",0.65
same,"PCC, Mean","[2]; […] Tris NTA, n = 3, 3, sd 0.06 (WT), 0.02 (R286W), p-value 3.86E-04",0.63
